Source: patent US20170027896A1, “METHODS AND COMPOSITIONS FOR THE TREATMENT OF VASCULAR MALFORMATION” (IFOM - FONDAZIONE ISTITUTO FIRC DI ONCOLOGIA MOLECOLARE, priority 2014, published 2017)
Entries after “also recorded” stand apart in the source; their conditions may differ.

What was measured:
[1] = test system: wild-type endothelial cells; assay: Wnt3a stimulation of stem-cell/EndMT marker expression in wild-type endothelial cells; assay type: cell-based, mouse; conditions: acute stimulation (48 h); 5 ng/ml
Experimental: (§1) Drugs were added to confluent cells for 48 h before the indicated assays. Final concentrations for IWP2 and IWP12, both from Sigma-Aldrich, were: 0.5, 2, 5 DM. Drugs were dissolved in DMSO, control treatment (Vehicle) was 0.1% DMSO final concentration, as for drug treatment. Murine recombinant Dkk1 (R&D) was 0.5 DM on cells.
(§2) RNA extraction was performed with RNeasy kits (74106; […]). The RNA (1 μg) was reverse transcribed with random hexamers (High Capacity cDNA Archive kits; Applied Biosystems). The cDNA was amplified with TaqMan gene expression assays (Applied Biosystems) using a 7900 HT thermocycler (ABI/Prism). For each sample, the expression levels were determined with the comparative threshold cycle (Ct) method, and normalized to the housekeeping genes encoding 18S and glyceraldehyde-3-phosphate dehydrogenase (GAPDH). For amplification, the following probes (Applied Biosystems) that have been validated to recognize the mouse transcripts in rtPCR were used: Axin2, Nkd1, Lef1, ccnd1, cMyc-Klf4, Ly6a, S100a4, Id1, Cdh2, Acta2, CD44. The probes to identify the CCM3 mRNA transcript were custom designed, as: forward, […] (SEQ ID No. 12); reverse, GCTCTGGCCGCTCAATCA (SEQ ID No. 13); reporter sequence, […] (SEQ ID No. 14).

[2] = test system: CCM3-knockout (KO) endothelial cells; assay: Axin2 and S100a4 transcription in un-stimulated CCM3-knockout endothelial cells treated with Wnt pathway inhibitors; assay type: cell-based, mouse; conditions: 48 h, IWP2, IWP12 0.5, 2, 5 DM, Dkk1 0.5 uM
Experimental: as §1, §2

[3] = test system: Wnt3a-induced stimulation of Axin2; assay: Wnt3a-induced stimulation of Axin2 in wild-type and CCM3-knockout endothelial cell lines; assay type: cell-based, mouse; conditions: Dkk1 0.5 uM
Experimental: as §1, §2

VE-cadherin = biological target: T1, VE-cadherin (mouse, UniProt P55284 46-784); assay: co-immunoprecipitation with VE-cadherin antibodies and Western blot, bands quantified with ImageJ, mean of three experiments; vehicle-KO versus vehicle-WT
T1 construct: Endogenous protein immunoprecipitated from endothelial cell extracts with VE-cadherin antibodies (IP: VE); also called Cdh5
T1 sequence (looked up): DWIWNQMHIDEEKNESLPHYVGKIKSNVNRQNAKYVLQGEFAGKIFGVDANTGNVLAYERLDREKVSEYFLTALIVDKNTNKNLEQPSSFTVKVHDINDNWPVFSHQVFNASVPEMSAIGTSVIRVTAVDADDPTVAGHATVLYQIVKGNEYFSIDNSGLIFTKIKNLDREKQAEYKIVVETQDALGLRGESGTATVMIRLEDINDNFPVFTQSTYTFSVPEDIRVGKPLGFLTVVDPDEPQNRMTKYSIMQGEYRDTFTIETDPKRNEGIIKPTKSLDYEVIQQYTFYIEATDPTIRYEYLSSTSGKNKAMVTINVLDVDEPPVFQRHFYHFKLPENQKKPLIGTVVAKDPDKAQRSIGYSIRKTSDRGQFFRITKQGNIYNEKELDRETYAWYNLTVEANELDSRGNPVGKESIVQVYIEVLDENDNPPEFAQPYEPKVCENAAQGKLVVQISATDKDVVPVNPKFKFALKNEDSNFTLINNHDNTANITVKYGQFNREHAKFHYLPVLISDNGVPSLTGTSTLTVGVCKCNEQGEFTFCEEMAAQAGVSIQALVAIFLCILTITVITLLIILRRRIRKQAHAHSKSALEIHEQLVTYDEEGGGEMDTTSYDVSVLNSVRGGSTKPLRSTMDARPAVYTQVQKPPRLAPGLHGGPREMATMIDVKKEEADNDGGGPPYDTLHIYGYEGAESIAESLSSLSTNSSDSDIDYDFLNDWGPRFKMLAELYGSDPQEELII
Description: Active b-catenin and VE-cadherin were lost from cell-cell contacts (adherens junctions) in these CCM3-knockout endothelial cells (top main panels, XY axis; small lower panels, Z projection along X axis). The active b-catenin (KO vehicle, arrowheads) is concentrated into the nucleus (see corresponding arrowheads in DAPI stainings) (right panels). Treatment with sulindac sulfide restored the distribution of active b-catenin to the adherens junctions (right panels, sulindac sulfide, arrowheads, and small lower right panels, sulindac sulfide, small arrowheads, for distribution along Z axis) and co-localization of active b-catenin and VE-cadherin is observed (arrowheads). […] Podocalyxin is re-localized from the apical surface (left panels, WT, arrows) to be ectopically distributed on the basal side with CCM3 knockout (right panel, vehicle, arrowheads), as it has been reported for CCM1 knockout⁴⁶. Nuclei are outlined by white lines (DAPI). Sulindac sulfide re-establishes the correct apical distribution of podocalyxin (right panel, sulindac sulfide, arrows). Scale bar, […]. c. Representative Western blotting (top) and quantification (bottom) of the effects of sulindac sulfide on the co-immunoprecipitation complex of b-catenin and VE-cadherin. […] The quantification of the bands from the Western blotting was assessed as the means of three independent experiments, using ImageJ. d.

## Wnt3a
[1]
  induction of expression of stem-cell/EndMT markers: cannot induce; also recorded: did not induce

B1: Dkk1: murine recombinant Dkk1, competitor of Wnt co-receptor Lrp5/6 (protein)
chain: TLNSVLINSNAIKNLPPPLGGAGGQPGSAVSVAPGVLYEGGNKYQTLDNYQPYPCAEDEECGSDEYCSSPSRGAAGVGGVQICLACRKRRKRCMRHAMCCPGNYCKNGICMPSDHSHFPRGEIEESIIENLGNDHNAAAGDGYPRRTTLTSKIYHTKGQEGSVCLRSSDCAAGLCCARHFWSKICKPVLKEGQVCTKHKRKGSHGLEIFQRCYCGEGLACRIQKDHHQASNSSRLHTCQRH
[2]
  b-catenin-driven activation of Axin2 and S100a4 transcription: not inhibited; also recorded: did not inhibit
[3]
  Wnt3a-induced stimulation of Axin2: effectively inhibited

B2: b-catenin (other, mouse, UniProt Q02248 2-781, looked up)
chain: ATQADLMELDMAMEPDRKAAVSHWQQQSYLDSGIHSGATTTAPSLSGKGNPEEEDVDTSQVLYEWEQGFSQSFTQEQVADIDGQYAMTRAQRVRAAMFPETLDEGMQIPSTQFDAAHPTNVQRLAEPSQMLKHAVVNLINYQDDAELATRAIPELTKLLNDEDQVVVNKAAVMVHQLSKKEASRHAIMRSPQMVSAIVRTMQNTNDVETARCTAGTLHNLSHHREGLLAIFKSGGIPALVKMLGSPVDSVLFYAITTLHNLLLHQEGAKMAVRLAGGLQKMVALLNKTNVKFLAITTDCLQILAYGNQESKLIILASGGPQALVNIMRTYTYEKLLWTTSRVLKVLSVCSSNKPAIVEAGGMQALGLHLTDPSQRLVQNCLWTLRNLSDAATKQEGMEGLLGTLVQLLGSDDINVVTCAAGILSNLTCNNYKNKMMVCQVGGIEALVRTVLRAGDREDITEPAICALRHLTSRHQEAEMAQNAVRLHYGLPVVVKLLHPPSHWPLIKATVGLIRNLALCPANHAPLREQGAIPRLVQLLVRAHQDTQRRTSMGGTQQQFVEGVRMEEIVEGCTGALHILARDVHNRIVIRGLNTIPLFVQLLYSPIENIQRVAAGVLCELAQDKEAAEAIEAEGATAPLTELLHSRNEGVATYAAAVLFRMSEDKPQDYKKRLSVELTSSLFRTEPMAWNETADLGLDIGAQGEALGYRQDDPSYRSFHSGGYGQDALGMDPMMEHEMGGHHPGADYPVDGLPDLGHAQDLMDGLPPGDSNQLAWFDTDL
notes: Endogenous protein in total cell extracts, co-immunoprecipitated with VE-cadherin antibodies; also called beta-catenin; β-catenin
VE-cadherin
  reduction of the b-catenin/VE-cadherin co-immunoprecipitation ratio in CCM3-knockout versus wild-type cells: 35%
